Results as given in the MegaScale stability set (Tsuboyama et al. 2023).

B1: HEEH_KT_rd6_0790 (parent)
chain: SEEEEEEWRRAKERGEEIIILGILWKPNDEEAERRIKEALRRV

Variants of: B1
Test: folding stability dG (cDNA display proteolysis); higher = more stable
Details: PBS, room temperature

Folding stability dG [kcal/mol]: each site, then its substitutions
G22: Q 1.15, R 0.712, K 0.815, W 1.93, I 2.28, V 2.1, S 1.19, E 1.12, M 2.3, N 1.18, T 1.4, P 0.681, D 1.29, A 1.37, F 2.59, L 2.12, H 1.1, Y 1.98
E38: A 1.94, M 1.47, N 1.61, Q 1.93, P 1.11, L 1.39, W 1.02, D 2.06, K 1.34, V 1.46, G 1.46, S 1.67, Y 0.909, H 1.39, I 1.91, R 1.52, F 1.03, T 1.41
K37: V 2.44, Y 2.08, P 0.399, R 2.37, F 2.11, G 1.43, E 2.49, L 2.75, I 2.56, N 2.35, M 2.23, A 1.92, D 1.93, W 2.3, Q 2.04, S 1.85, T 2.4, H 2
L24: K 2.14, G 0.898, A 1.53, M 1.79, I 1.69, D 0.729, Q 1.66, T 1.75, N 1.34, F 1.64, H 1.75, V 1.79, S 1.67, Y 1.72, R 1.95, P 1.39, E 1.29, W 1.26
W25: I 1.01, C 1.26, L 0.939, V 0.885, R 0.67, A 0.981, P 0.549, N 0.423, H 0.716, M 0.967, F 1.4, Y 1.25, K 0.664, T 0.615, G 0.809, E 0.532, S 0.662, D 0.518, Q 0.568
E33: L 1.7, M 1.7, K 1.09, R 1.29, D 2.01, H 1.3, I 1.49, A 1.72, Q 1.31, S 1.68, P 0.529, Y 1.71, F 1.66, T 1.98, G 1.49, W 1.99, V 1.52, N 1.61
I23: L 1.46, N 0.85, F 1.26, E 0.981, S 0.659, W 0.765, A 0.977, P 0.9, R 0.853, D 0.764, V 1.55, K 1.08, H 1.2, G 0.931, T 1.16, Q 0.969, M 1.08, Y 0.775
D29: W 1.55, I 0.872, M 1.05, K 0.951, N 1.39, P 1.09, H 1.28, Q 1.34, Y 1.24, V 1.25, T 0.862, G 1, L 1.01, R 1.19, F 1.28, S 1.42, A 1.25, E 1.06
I36: K 0.876, Y 1.02, R 0.952, T 1.06, A 1.11, P 0.142, S 0.815, L 1.49, D 0.894, Q 0.909, N 0.613, W 1.32, E 0.641, M 1.39, H 0.809, F 1.5, V 2.01, G 1.03
P27: I 1.27, Q 1.2, F 1.41, Y 1.22, L 1.15, H 0.914, T 1.16, V 1.2, M 1.18, K 1.12, C 2.1, D 1.35, E 1.37, W 1.42, G 1.21, R 0.846, A 1.13, S 1.02, N 1.22
N28: A 1.67, T 1.38, V 1.1, W 2.05, Y 1.9, Q 1.82, H 1.97, I 0.872, L 1.61, P 1.34, M 1.77, G 2.81, R 1.71, D 2.19, S 1.62, F 2.1, E 1.84, K 1.45
A39: T 1.31, L 2.06, D 0.764, M 2.1, G 1.32, K 1.79, F 1.69, S 1.26, H 1.38, R 1.88, N 1.01, P 0.322, E 1.53, I 1.81, C 2.06, Q 1.6
E30: K 1.93, W 1.94, V 2.04, G 1.78, Q 1.94, T 1.9, F 2.05, M 2.24, H 2.06, R 1.81, L 2.28, P 2.04, N 1.83, D 2.25, I 2.17, Y 2.13, S 1.83, A 2.03
L21: N 1.24, R 2.07, S 1.24, W 1.26, Y 1.45, T 1.04, P 0.723, V 1.34, Q 1.84
R35: M 2.2, T 1.5, Y 1.18, Q 2.14, K 2.09, A 2.21, H 1.61, N 1.62, V 1.48, D 1.49, F 1.38, W 1.56, S 1.71, P 0.078, L 2.19, G 1.32, I 1.66, E 1.68
R34: C 2.5, L 2.06, S 2.02, V 1.87, T 1.9, M 2.12, Y 1.87, A 2.22, K 2.06, F 1.9, G 1.63, N 2, E 2.12, H 1.73, W 1.92, P 0.726, D 1.64, I 1.77, Q 2.14
A32: T 1.55, D 0.955, I 1.39, P 0.466, H 0.931, W 1.02, V 1.37, R 1.12, K 0.96, E 1.25, M 1.26, N 1.02, L 1.41, S 1.96, Y 1.07, Q 1.07, F 0.917, G 1.2
K26: M 1.7, Y 1.51, I 2.02, R 2.4, G 1.52, F 1.51, L 1.65, W 1.53, V 2.06, N 1.6, E 1.26, T 2.12, H 1.46, P 1.26, A 1.87, S 1.99, D 1.26, Q 1.64
E31: M 1.54, P 0.967, Y 1.56, G 1.61, L 1.69, D 2.14, V 1.9, H 1.64, R 1.38, Q 1.72, A 1.79, F 1.49, K 1.32, S 1.69, N 1.69, I 1.8, T 1.79, W 1.5
